# Experimental data published in the supplement of paper PMC5998384.
# Key:
# HeLa Kyoto [1] = assay: solubility in G1/S (NP-40 vs SDS abundance) (log2 ratio); higher = more soluble; conditions: cell cycle stage: G1/S
# HeLa Kyoto [2] = assay: solubility change mitosis vs G1/S (difference of NP-40 vs SDS log2 ratios) (log2 ratio difference); higher = more soluble in mitosis
# 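For solubility change mitosis vs G1/S (difference of NP-40 vs SDS log2 ratios) in this document: synchronized HeLa Kyoto cells (double thymidine block for G1/S, nocodazole release for mitosis), protein amounts in NP-40 versus SDS lysates quantified by mass spectrometry, three biological replicates.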
# 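For solubility in G1/S (NP-40 vs SDS abundance) in this document: HeLa Kyoto cells arrested at G1/S by double thymidine block, proteins quantified by TMT10plex mass spectrometry in mild NP-40 versus SDS extracts, three biological replicates.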
sequence,measurement,setting,value
MDFSFSFMQGIMGNTIQQPPQLIDSANIRQEDAFDNNSDIAEDGGQTPYEATLQQGFQYPATTEDLPPLTNGYPSSISVYETQTKYQSYNQYPNGSANGFGAVRNFSPTDYYHSEIPNTRPHEILEKPSPPQPPPPPSVPQTVIPKKTGSPEIKLKITKTIQNGRELFESSLCGDLLNEVQASEHTKSKHESRKEKRKKSNKHDSSRSEERKSHKIPKLEPEEQNRPNERVDTVSEKPREEPVLKEEAPVQPILSSVPTTEVSTGVKFQVGDLVWSKVGTYPWWPCMVSSDPQLEVHTKINTRGAREYHVQFFSNQPERAWVHEKRVREYKGHKQYEELLAEATKQASNHSEKQKIRKPRPQRERAQWDIGIAHAEKALKMTREERIEQYTFIYIDKQPEEALSQAKKSVASKTEVKKTRRPRSVLNTQPEQTNAGEVASSLSSTEIRRHSQRRHTSAEEEEPPPVKIAWKTAAARKSLPASITMHKGSLDLQKCNMSPVVKIEQVFALQNATGDGKFIDQFVYSTKGIGNKTEISVRGQDRLIISTPNQRNEKPTQSVSSPEATSGSTGSVEKKQQRRSIRTRSESEKSTEVVPKKKIKKEQVETVPQATVKTGLQKGASEISDSCKPLKKRSRASTDVEMTSSAYRDTSDSDSRGLSDLQVGFGKQVDSPSATADADVSDVQSMDSSLSRRGTGMSKKDTVCQICESSGDSLIPCEGECCKHFHLECLGLASLPDSKFICMECKTGQHPCFSCKVSGKDVKRCSVGACGKFYHEACVRKFPTAIFESKGFRCPQHCCSACSMEKDIHKASKGRMMRCLRCPVAYHSGDACIAAGSMLVSSYILICSNHSKRSSNSSAVNVGFCFVCARGLIVQDHSDPMFSSYAYKSHYLLNESNRAELMKLPMIPSSSASKKKCEKGGRLLCCESCPASFHPECLSIEMPEGCWNCNDCKAGKKLHYKQIVWVKLGNYRWWPAEICNPRSVPLNIQGLKHDLGDFPVFFFGSHDYYWVHQGRVFPYVEGDKSFAEGQTSINKTFKKALEEAAKRFQELKAQRESKEALEIEKNSRKPPPYKHIKANKVIGKVQIQVADLSEIPRCNCKPADENPCGLESECLNRMLQYECHPQVCPAGDRCQNQCFTKRLYPDAEIIKTERRGWGLRTKRSIKKGEFVNEYVGELIDEEECRLRIKRAHENSVTNFYMLTVTKDRIIDAGPKGNYSRFMNHSCNPNCETQKWTVNGDVRVGLFALCDIPAGMELTFNYNLDCLGNGRTECHCGADNCSGFLGVRPKSACASTNEEKAKNAKLKQKRRKIKTEPKQMHEDYCFQCGDGGELVMCDKKDCPKAYHLLCLNLTQPPYGKWECPWHQCDECSSAAVSFCEFCPHSFCKDHEKGALVPSALEGRLCCSEHDPMAPVSPEYWSKIKCKWESQDHGEEVKE [WHSC1L1],solubility in G1/S (log2),HeLa Kyoto [1],-0.563
same,solubility change mitosis (log2),HeLa Kyoto [2],0.362
MDIIETAKLEEHLENQPSDPTNTYARPAEPVEEENKNGNGKPKSLSSGLRKGTKKYPDYIQIAMPTESRNKFPLEWWKTGIAFIYAVFNLVLTTVMITVVHERVPPKELSPPLPDKFFDYIDRVKWAFSVSEINGIILVGLWITQWLFLRYKSIVGRRFCFIIGTLYLYRCITMYVTTLPVPGMHFQCAPKLNGDSQAKVQRILRLISGGGLSITGSHILCGDFLFSGHTVTLTLTYLFIKEYSPRHFWWYHLICWLLSAAGIICILVAHEHYTIDVIIAYYITTRLFWWYHSMANEKNLKVSSQTNFLSRAWWFPIFYFFEKNVQGSIPCCFSWPLSWPPGCFKSSCKKYSRVQKIGEDNEKST [SGMS2],solubility in G1/S (log2),HeLa Kyoto [1],-0.197
same,solubility change mitosis (log2),HeLa Kyoto [2],-0.0915
MDKNIGEQLNKAYEAFRQACMDRDSAVKELQQKTENYEQRIREQQEQLSLQQTIIDKLKSQLLLVNSTQDNNYGCVPLLEDSETRKNNLTLDQPQDKVISGIAREKLPKVRRQEVSSPRKETSARSLGSPLLHERGNIEKTFWDLKEEFHKICMLAKAQKDHLSKLNIPDTATETQCSVPIQCTDKTDKQEALFKPQAKDDINRGAPSITSVTPRGLCRDEEDTSFESLSKFNVKFPPMDNDSTFLHSTPERPGILSPATSEAVCQEKFNMEFRDNPGNFVKTEETLFEIQGIDPIASAIQNLKTTDKTKPSNLVNTCIRTTLDRAACLPPGDHNALYVNSFPLLDPSDAPFPSLDSPGKAIRGPQQPIWKPFPNQDSDSVVLSGTDSELHIPRVCEFCQAVFPPSITSRGDFLRHLNSHFNGET [TANK],solubility in G1/S (log2),HeLa Kyoto [1],-0.138
same,solubility change mitosis (log2),HeLa Kyoto [2],-0.0338
MDPPAVVAESVSSLTIADAFIAAGESSAPTPPRPALPRRFICSFPDCSANYSKAWKLDAHLCKHTGERPFVCDYEGCGKAFIRDYHLSRHILTHTGEKPFVCAANGCDQKFNTKSNLKKHFERKHENQQKQYICSFEDCKKTFKKHQQLKIHQCQHTNEPLFKCTQEGCGKHFASPSKLKRHAKAHEGYVCQKGCSFVAKTWTELLKHVRETHKEEILCEVCRKTFKRKDYLKQHMKTHAPERDVCRCPREGCGRTYTTVFNLQSHILSFHEESRPFVCEHAGCGKTFAMKQSLTRHAVVHDPDKKKMKLKVKKSREKRSLASHLSGYIPPKRKQGQGLSLCQNGESPNCVEDKMLSTVAVLTLG [GTF3A],solubility in G1/S (log2),HeLa Kyoto [1],-0.869
same,solubility change mitosis (log2),HeLa Kyoto [2],0.0516
MDRFLVKGAQGGLLRKQEEQEPTGEEPAVLGGDKESTRKRPRREAPGNGGHSAGPSWRHIRAEGLDCSYTVLFGKAEADEIFQELEKEVEYFTGALARVQVFGKWHSVPRKQATYGDAGLTYTFSGLTLSPKPWIPVLERIRDHVSGVTGQTFNFVLINRYKDGCDHIGEHRDDERELAPGSPIASVSFGACRDFVFRHKDSRGKSPSRRVAVVRLPLAHGSLLMMNHPTNTHWYHSLPVRKKVLAPRVNLTFRKILLTKK [ALKBH2],solubility in G1/S (log2),HeLa Kyoto [1],0.0785
same,solubility change mitosis (log2),HeLa Kyoto [2],0.0123
MDSLDHMLTDPLELGPCGDGHGTRIMEDCLLGGTRVSLPEDLLEDPEIFFDVVSLSTWQEVLSDSQREHLQQFLPQFPEDSAEQQNELILALFSGENFRFGNPLHIAQKLFRDGHFNPEVVKYRQLCFKSQYKRYLNSQQQYFHRLLKQILASRSDLLEMARRSGPALPFRQKRPSPSRTPEEREWRTQQRYLKVLREVKEECGDTALSSDEEDLSSWLPSSPARSPSPAVPLRVVPTLSTTDMKTADKVELGDSDLKIMLKKHHEKRKHQPDHPDLLTGDLTLNDIMTRVNAGRKGSLAALYDLAVLKKKVKEKEEKKKKKIKTIKSEAEDLAEPLSSTEGVAPLSQAPSPLAIPAIKEEPLEDLKPCLGINEISSSFFSLLLEILLLESQASLPMLEERVLDWQSSPASSLNSWFSAAPNWAELVLPALQYLAGESRAVPSSFSPFVEFKEKTQQWKLLGQSQDNEKELAALFQLWLETKDQAFCKQENEDSSDATTPVPRVRTDYVVRPSTGEEKRVFQEQERYRYSQPHKAFTFRMHGFESVVGPVKGVFDKETSLNKAREHSLLRSDRPAYVTILSLVRDAAARLPNGEGTRAEICELLKDSQFLAPDVTSTQVNTVVSGALDRLHYEKDPCVKYDIGRKLWIYLHRDRSEEEFERIHQAQAAAAKARKALQQKPKPPSKVKSSSKESSIKVLSSGPSEQSQMSLSDSSMPPTPVTPVTPTTPALPAIPISPPPVSAVNKSGPSTVSEPAKSSSGVLLVSSPTMPHLGTMLSPASSQTAPSSQAAARVVSHSGSAGLSQVRVVAQPSLPAVPQQSGGPAQTLPQMPAGPQIRVPATATQTKVVPQTVMATVPVKAQTTAATVQRPGPGQTGLTVTSLPATASPVSKPATSSPGTSAPSASTAAVIQNVTGQNIIKQVAITGQLGVKPQTGNSIPLTATNFRIQGKDVLRLPPSSITTDAKGQTVLRITPDMMATLAKSQVTTVKLTQDLFGTGGNTTGKGISATLHVTSNPVHAADSPAKASSASAPSSTPTGTTVVKVTPDLKPTEASSSAFRLMPALGVSVADQKGKSTVASSEAKPAATIRIVQGLGVMPPKAGQTITVATHAKQGASVASGSGTVHTSAVSLPSMNAAVSKTVAVASGAASTPISISTGAPTVRQVPVSTTVVSTSQAGKLPTRITVPLSVISQPMKGKSVVTAPIIKGNLGANLSGLGRNIILTTMPAGTKLIAGNKPVSFLTAQQLQQLQQQGQATQVRIQTVPASHLQQGTASGSSKAVSTVVVTTAPSPKQAPEQQ [NFRKB],solubility in G1/S (log2),HeLa Kyoto [1],-0.0172
same,solubility change mitosis (log2),HeLa Kyoto [2],0.184
